The values below come from patent publication US20240390496A1 (published 2024).

For the experiment, the target named is T1, MAGE-A3 peptide on HLA-A*02:01 (human).
T1 peptide: KVAELVHFL
The experiment can be described thus: killing.

B1: MAGE-A3 (112-120) TCR (MAGE-A3-112-120-Va / MAGE-A3-112-120-Vb) (TCR, V domains shown)
Valpha: GDSVTQTEGLVTLTEGLPVMLNCTYQTIYSNPFLFWYVQHLNESPRLLLKSFTDNKRTEHQGFHATLHKSSSSFHLQKSSAQLSDSALYYCAFDTNTYKVIFGKGTHLHVLP
Vbeta: DMKVTQMPRYLIKRMGENVLLECGQDMSHETMYWYRQDPGLGLQLIYISYDVDSNSEGDIPKGYRVSRKKREHFSLILDSAKTNQTSVYFCASSSTNTEVFFGKGTRLTVL
Regarding B1, the binding result was “recognises”.
